Common to all, as to details: both partners purified
Assay [1] concerns the target T1, Pol α catalytic subunit (334-1462), as in the truncated human primosome (human, UniProt P09884 334-1462).
T1 construct: also called DNA polymerase α; catalytic subunit of Pol α
T1 sequence (looked up): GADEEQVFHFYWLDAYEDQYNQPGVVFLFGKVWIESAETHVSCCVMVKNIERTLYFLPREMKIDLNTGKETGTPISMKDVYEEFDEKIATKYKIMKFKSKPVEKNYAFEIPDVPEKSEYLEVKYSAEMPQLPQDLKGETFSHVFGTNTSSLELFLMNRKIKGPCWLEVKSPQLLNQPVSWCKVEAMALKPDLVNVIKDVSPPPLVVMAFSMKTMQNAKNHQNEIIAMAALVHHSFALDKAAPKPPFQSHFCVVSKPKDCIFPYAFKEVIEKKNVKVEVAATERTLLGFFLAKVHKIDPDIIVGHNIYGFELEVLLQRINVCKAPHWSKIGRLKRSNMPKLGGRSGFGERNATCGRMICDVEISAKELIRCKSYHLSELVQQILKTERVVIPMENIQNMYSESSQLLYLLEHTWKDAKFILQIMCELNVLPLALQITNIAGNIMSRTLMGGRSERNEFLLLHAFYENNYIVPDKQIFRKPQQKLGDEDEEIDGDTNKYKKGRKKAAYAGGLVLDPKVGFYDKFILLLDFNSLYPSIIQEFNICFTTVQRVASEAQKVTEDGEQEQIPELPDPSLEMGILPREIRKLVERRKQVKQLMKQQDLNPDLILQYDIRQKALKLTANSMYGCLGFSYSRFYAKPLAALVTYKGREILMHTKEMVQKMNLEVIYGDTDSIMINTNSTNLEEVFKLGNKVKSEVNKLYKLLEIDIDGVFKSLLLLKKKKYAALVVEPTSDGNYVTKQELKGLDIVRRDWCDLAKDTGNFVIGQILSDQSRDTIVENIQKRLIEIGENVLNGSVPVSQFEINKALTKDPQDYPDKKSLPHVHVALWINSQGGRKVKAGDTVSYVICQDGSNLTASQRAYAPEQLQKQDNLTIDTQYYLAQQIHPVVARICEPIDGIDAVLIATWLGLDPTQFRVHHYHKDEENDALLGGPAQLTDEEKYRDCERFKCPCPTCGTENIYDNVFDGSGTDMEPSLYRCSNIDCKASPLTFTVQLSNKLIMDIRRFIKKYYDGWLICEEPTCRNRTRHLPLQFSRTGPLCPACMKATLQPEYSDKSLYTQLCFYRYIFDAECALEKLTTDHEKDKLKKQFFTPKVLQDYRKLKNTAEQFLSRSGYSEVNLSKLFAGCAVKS
Description: […]) in 25 mM HEPES pH 7.2, 150 mM KCl, 1 mM DTT; […].

In assay [2] the target is T2, Truncated human primosome (Pol α: 334-1462; B subunit: 149-598; PriS: 1-420; PriL: 1-509) (human, UniProt P09884 334-1462; Q14181 149-598; P49642 1-420; P49643 1-509).
T2 construct: also called truncated primosome; Pol α - primase
T2 sequence (Q14181 149-598, chain 2 of 3): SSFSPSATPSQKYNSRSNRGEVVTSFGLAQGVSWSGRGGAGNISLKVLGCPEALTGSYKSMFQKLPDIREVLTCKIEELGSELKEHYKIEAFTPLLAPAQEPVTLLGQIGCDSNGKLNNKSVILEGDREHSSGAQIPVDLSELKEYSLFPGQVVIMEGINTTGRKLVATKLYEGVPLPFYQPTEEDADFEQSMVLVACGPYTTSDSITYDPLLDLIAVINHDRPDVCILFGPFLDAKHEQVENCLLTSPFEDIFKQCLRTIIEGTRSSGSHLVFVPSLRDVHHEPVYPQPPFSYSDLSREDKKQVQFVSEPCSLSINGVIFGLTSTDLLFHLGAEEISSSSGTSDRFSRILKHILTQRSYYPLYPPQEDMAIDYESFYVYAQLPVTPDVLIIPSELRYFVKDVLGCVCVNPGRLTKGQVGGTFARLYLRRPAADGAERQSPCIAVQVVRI
T2 sequence (P49642 whole entry, chain 3 of 3, the tested form may be a part): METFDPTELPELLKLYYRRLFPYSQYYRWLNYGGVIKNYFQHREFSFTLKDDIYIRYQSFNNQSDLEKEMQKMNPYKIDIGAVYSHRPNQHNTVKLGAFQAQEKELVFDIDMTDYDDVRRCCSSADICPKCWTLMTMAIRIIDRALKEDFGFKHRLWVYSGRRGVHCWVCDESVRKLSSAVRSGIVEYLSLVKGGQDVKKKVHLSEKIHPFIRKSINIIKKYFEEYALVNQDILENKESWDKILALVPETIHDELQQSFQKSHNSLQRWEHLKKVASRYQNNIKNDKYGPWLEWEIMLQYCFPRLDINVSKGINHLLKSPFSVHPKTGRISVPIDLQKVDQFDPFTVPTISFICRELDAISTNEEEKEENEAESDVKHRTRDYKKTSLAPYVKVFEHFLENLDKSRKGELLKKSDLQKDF
T2 sequence (P49643 whole entry, chain 4 of 3, the tested form may be a part): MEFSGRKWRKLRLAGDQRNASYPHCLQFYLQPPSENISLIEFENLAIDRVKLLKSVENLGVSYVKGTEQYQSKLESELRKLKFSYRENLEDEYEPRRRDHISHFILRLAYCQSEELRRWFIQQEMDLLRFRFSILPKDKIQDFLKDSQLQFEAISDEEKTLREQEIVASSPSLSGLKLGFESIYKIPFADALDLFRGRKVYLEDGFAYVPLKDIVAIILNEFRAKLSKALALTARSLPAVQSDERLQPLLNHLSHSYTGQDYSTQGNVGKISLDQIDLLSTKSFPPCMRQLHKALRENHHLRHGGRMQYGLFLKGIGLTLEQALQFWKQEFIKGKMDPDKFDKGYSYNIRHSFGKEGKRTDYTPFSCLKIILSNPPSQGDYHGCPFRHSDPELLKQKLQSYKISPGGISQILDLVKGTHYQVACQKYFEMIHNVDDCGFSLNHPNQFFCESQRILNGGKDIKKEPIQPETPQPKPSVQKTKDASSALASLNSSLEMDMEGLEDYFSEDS
The assay is described as above.

Assay [3] addresses T2, Truncated human primosome (Pol α: …). The assay can be described thus: pull-down.
Assay [4] concerns the target T3, Full-length human primosome (Pol α: 1-1462; B subunit: 1-598; PriS: 1-420; PriL: 1-509) (human, UniProt P09884 1-1462; Q14181 1-598; P49642 1-420; P49643 1-509).
T3 construct: also called DNA polymerase α - primase complex; Pol α - primase
The assay can be described thus: pull-down.

T3 sequence (Q14181 whole entry, chain 2 of 3): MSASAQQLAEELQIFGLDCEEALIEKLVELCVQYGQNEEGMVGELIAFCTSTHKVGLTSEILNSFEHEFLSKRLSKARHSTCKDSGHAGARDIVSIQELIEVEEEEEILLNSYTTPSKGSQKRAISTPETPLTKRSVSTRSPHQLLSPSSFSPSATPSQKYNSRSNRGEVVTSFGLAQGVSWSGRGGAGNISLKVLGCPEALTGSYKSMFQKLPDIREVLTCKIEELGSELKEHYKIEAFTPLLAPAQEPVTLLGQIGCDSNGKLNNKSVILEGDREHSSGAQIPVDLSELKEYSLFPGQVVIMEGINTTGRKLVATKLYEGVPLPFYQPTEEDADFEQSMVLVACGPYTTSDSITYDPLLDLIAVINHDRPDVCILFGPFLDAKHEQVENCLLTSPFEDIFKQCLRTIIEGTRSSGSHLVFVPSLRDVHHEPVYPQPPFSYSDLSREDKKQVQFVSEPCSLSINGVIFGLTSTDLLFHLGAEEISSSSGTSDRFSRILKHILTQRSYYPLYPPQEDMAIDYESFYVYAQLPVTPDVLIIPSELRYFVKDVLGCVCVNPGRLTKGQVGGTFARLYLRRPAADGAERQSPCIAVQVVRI
T3 sequence (P49642 whole entry, chain 3 of 3): as the sequence (P49642 whole entry, chain 3 of 3, the tested form may be a part) above
T3 sequence (P49643 whole entry, chain 4 of 3): as the sequence (P49643 whole entry, chain 4 of 3, the tested form may be a part) above

B1: SARS-CoV nsp1 (13-127), His6-MBP tag cleaved (domain or fragment)
chain: HVQLSLPVLQVRDVLVRGFGDSVEEALSEAREHLKNGTCGLVELEKGVLPQLEQPYVFIKRSDALSTNHGHKVVELVAEMDGIQYGRSGITLGVLVPHVGETPIAYRNVLLRKNG
Turning to B1, the binding result in assay [1] and in assay [2] was “binds” in each case.

B2: SARS-CoV nsp1 middle domain (13-127), His6-MBP fusion (domain or fragment)
chain: B1 chain
For B2, the binding result in assay [3] is given as “binds”.

B3: SARS-CoV-2 nsp1 middle domain (13-127), His6-MBP fusion (domain or fragment)
chain: HVQLSLPVLQVRDVLVRGFGDSVEEVLSEARQHLKDGTCGLVEVEKGVLPQLEQPYVFIKRSDARTAPHGHVMVELVAELEGIQYGRSGETLGVLVPHVGEIPVAYRKVLLRKNG
As for B3, the binding result in assay [3] is on record as “binds”.

B4: MBP-tagged SARS-CoV nsp1 (full-length, His6-MBP fusion) (natural protein)
chain: MESLVLGVNEKTHVQLSLPVLQVRDVLVRGFGDSVEEALSEAREHLKNGTCGLVELEKGVLPQLEQPYVFIKRSDALSTNHGHKVVELVAEMDGIQYGRSGITLGVLVPHVGETPIAYRNVLLRKNGNKGAGGHSYGIDLKSYDLGDELGTDPIEDYEQNWNTKHGSGALRELTRELNGG
Take B4: the binding result in assay [4] and in assay [3] was “binds” in each case.

Values taken from paper doi:10.1101/2021.06.17.448816 (bioRxiv, 2021).
